Source: patent publication US20250333486A1, “Anti-HSP90 alpha antibody and uses thereof” (NATIONAL HEALTH RESEARCH INSTITUTES, priority 2021, published 2025)

Experiments:
rHSP90α = biological target: T1, rHSP90α (Homo sapiens, UniProt P07900); experiment: ELISA for HSP90α-binding activities; conditions: culture supernatants of six hybridoma clones
T1 construct: recombinant 732-amino acid (a.a.) full-length human HSP90α (rHSP90α; PeproTech Co., Cranbury, NJ, USA); purchased PeproTech Co., Cranbury, NJ, USA
Description: For assaying the HSP90α-binding activities of the prepared antibodies, 96-well plates were coated with 12.5 ng/ml of rHSP90α in the capture buffer (BioLegend, San Diego, CA, USA) by overnight incubation at 4° C. The coated plates were washed twice with PBST and then blocked with PBST plus 3% bovine serum albumin (BSA). The prepared antibodies were applied and incubated 2 h at room temperature. After three washes with PBST, horseradish peroxidase-conjugated secondary antibody was added and incubated at 37° C. for another 1 h. After three washes, 0.3 mg/ml of 3,3′,5,5′-tetramethylbenzidine in 0.015% H2O2 was added into each well and incubated in the dark at room temperature for 10 min. The reactions were stopped by the addition of 0.5 M H2SO4, and OD450 values were measured by an Infinite M200 microplate reader (TECAN, Männedorf, Switzerland). Additionally, the immunoglobulin (IgG) isotype characterization of anti-HSP90α antibodies was performed by using the Mouse Ig Isotyping ELISA Ready-Set-Go!™ Kit (eBioscience™, Thermo Fisher Scientific, Waltham, MA, USA). The ELISA protocol was also used to assay the secreted HSP90α levels of mouse serum samples as described previously. See Chen J S, Hsu Y M, Chen C C, Chen L L, Lee C C, Huang T S. Secreted heat shock protein 90α induces colorectal cancer cell invasion through CD91/LRP-1 and NF-κB-mediated integrin αV expression. […]

[1] = biological target: T2, associations of CD91 with HSP90α and IKKα (Homo sapiens, UniProt P07900); experiment: Proximity ligation assay (PLA) in PANC-1 cells; format: cell-based; conditions: 15 μg/ml rHSP90α, 10 μg/ml antibody
T2 construct: recombinant 732-amino acid (a.a.) full-length human HSP90α (rHSP90α; PeproTech Co., Cranbury, NJ, USA); purchased PeproTech Co., Cranbury, NJ, USA; host or cells: PANC-1 cells (CD91 and IKKα endogenous)
Description: PANC-1 cells seeded onto glass coverslips at a density of 2×10^5 cells per 22×22-mm coverslip were incubated 16 h with 0.5% serum-containing medium at 37° C. plus a 5% CO2 humidified atmosphere. The cells were then added with PBS or 15 μg/ml of rHSP90α in the absence or presence of 10 μg/ml of control IgG or the tested anti-HSP90α antibody for another 24-h incubation. The treated cells were then fixed with 3% paraformaldehyde and blocked with the blocking solution provided in the Duolink in situ PLA kit (Olink Bioscience, Uppsala, Sweden). Furthermore, the cell samples were incubated overnight at 4° C. with anti-CD91 antibody (1:80, cat. #550495, BD Biosciences, San Jose, CA, USA) mixed with anti-HSP90α antibody (1:80, cat. #AHP-1339, AbD Serotec, Raleigh, NC, USA) or anti-IKKα antibody (1:80, cat. #3285, Epitomics Co., Burlingame, CA, USA). After washed trice with Tris-buffered saline plus 0.05% Tween 20, the cell samples were incubated with PLA probes for the subsequent ligation and amplification procedure according to the manufacturer's instructions for the Duolink in situ PLA kit. Finally, nuclei were counterstained with 4′,6′-diamidino-2-phenylindole (DAPI; Sigma-Aldrich). Images were photographed and analyzed using Leica TCS SP5 II confocal microscope and LAS AF Lite 4.0 software (Leica, Wetzlar, Germany).

SW620 and PANC-1 cells = experiment: Transwell invasion assay, rHSP90α-induced cancer cell invasion; format: cell-based, human; conditions: SW620 and PANC-1, 15 μg/ml rHSP90α plus 10 μg/ml antibody
Description: (§1) In a 37° C. and 5% CO2 humidified incubator, cancer cells were subjected to serum starvation in 0.5% FBS-containing medium for 16 h, and then added with PBS or 15 μg/ml of rHSP90α in the absence or presence of 10 μg/ml of control IgG or the tested anti-HSP90α antibody. After another 24 h, the treated cells were harvested as aliquots (1×10^5 cells per aliquot) in 0.5% FBS-containing culture medium, and then each aliquot was seeded into a top chamber of Transwell inserts pre-coated with 5-fold diluted Matrigel (BD Biosciences). Cells were allowed 16 h to invade through the Matrigel toward the bottom chambers containing culture medium plus 10% FBS. The filters of the Transwell inserts were then fixed and stained with Giemsa. Invasive cells on the lower side of filters were photographed using the Axiovert S100/AxioCam HR microscope system (Carl Zeiss, Oberkochen, Germany) and further quantified by the Image-Pro Plus software (Media Cybernetics, Inc., Silver Spring, MD, USA).

[2] = tested on: SW620, PANC-1, and Panc 02 cells; experiment: Cell spheroid-forming assay, rHSP90α-induced gain-of-stemness; format: cell-based, human and mouse; conditions: SW620, PANC-1, Panc 02; 15 μg/ml rHSP90α plus 10 μg/ml antibody
Description: One thousand cancer cells were seeded onto each well of 24-well plates pre-coated with a 4-mm thick layer of 0.5% agarose. After incubation 24 h with serum-free medium at 37° C. plus a 5% CO2 humidified atmosphere, cells were added with PBS or 15 μg/ml of rHSP90α in the absence or presence of 10 μg/ml of control IgG or the tested anti-HSP90α antibody. The incubation was kept for 10-14 days with supplements of some fresh serum-free medium every 3 days. Finally, the cell spheroids characterized by tight, non-adherent, and >100 μm in diameter were photographed and counted under an Olympus IX 71 inverted microscope (Center Valley, PA, USA). The spheroid formation % was calculated by the formula: (number of cell spheroids/1000)×100%.

HSP90α = biological target: T3, HSP90α (Homo sapiens, UniProt P07900); experiment: Epitope determination by ELISA (domain, peptide and alanine scanning); format: binding; conditions: full-length and truncated HSP90α
T3 construct: The full-length HSP90α (a.a. 1-732) and its 3 truncated fragments; 8×His; made in house; host or cells: Escherichia coli ClearColi, pET-23a
From the text: The full-length HSP90α (a.a. 1-732) and its 3 truncated fragments including the N-terminal plus Linker domains (a.a. 1-272), N terminus through Middle domain (a.a. 1-629), and C-terminal domain (a.a. 630-732) were cloned, expressed, and purified. Briefly, each cDNA sequence with a 8×His-tag was amplified by PCR from the human ORF Clone (NM_005348) with the primers containing Xho I and BamH I sites. The PCR products were purified, digested with restriction enzymes, and then inserted into pET-23a plasmid (Sigma-Aldrich). The recombinant plasmids were then transformed into Escherichia coli ClearColi® competent cells (Lucigen Co., Middleton, WI, USA), and expressions of the recombinant constructs were stimulated by the addition of isopropyl-D-thiogalacto-pyranoside. The expressed histidine-tagged full-length and truncated HSP90α were further purified by using the Ni—NTA column (Qiagen, Germantown, MD, USA) according to the manufacturer's instructions. The purified proteins were finally dialyzed against the storage buffer consisting of 25 mM Tris-HCl (pH, 7.0), 50 mM NaCl, 0.1% Triton X-100, 50% glycerol, 1 mM EDTA, and 1 mM DTT, and protein concentrations were determined by the Bradford protein assay (Bio-Rad Laboratories, Hercules, USA).
At first, the domain scanning strategy was used to roughly delineate the HSP90α region responsible for the binding with our prepared antibodies. […]

PANC-1 cells = experiment: Transwell invasion assay, rHSP90α-induced PANC-1 invasion; format: cell-based, human; conditions: 15 μg/ml rHSP90α plus 10 μg/ml antibody
Description: as §1, with “with PBS or 15 μg/ml of rHSP90α in the absence or presence of 10 μg/ml of control IgG or the tested anti-HSP90α antibody.” left out

HSP90α-binding levels (ELISA) (rHSP90α) | blocking of the binding of eHSP90α with its cell-surface receptor CD91 [1] | blocking of the downstream association of CD91 with IKKα [1] | Molecule | rHSP90α-induced cancer cell invasion (SW620 and PANC-1 cells) | rHSP90α-induced spheroid-forming ability (gain-of-stemness) [2] | HSP90α region bound (domain scanning) (HSP90α) | suppression of rHSP90α-induced invasiveness of PANC-1 cells (PANC-1 cells)
top two HSP90α-binding levels | efficiently blocked | efficiently blocked | Clone-2: mouse anti-HSP90α monoclonal antibody, IgG2b κ; VH SEQ ID NO: 2, VL SEQ ID NO: 7 (antibody, V domains shown, Heavy chain variable region; Light chain variable region) VH: EVQVVESGGGLVQPKGSLKLSCAASGFTFKTYAMNWVRQAPGKGLEWVARIRSKSRNYATYYADSVKDRFTISRDDSQFMFYLQMNNLKTEDTAMYYCVVGGSGFDYWGQGTTLTVSS VL: DVLMTQTPLSLPVSLGDQASISCRSSQSIVHSNGNTYLEWYLQKPGQSPKLLIYKVGVPDRFSGSGSGTDFTLSISRVEAGDLGVYYCFQGSHVPWTFGGGTKLEIK | drastically abolished | significantly inhibited | bound to the a.a. 1-272 region as well as the full-length protein | –
– | – | – | Clone-2-chimera: recombinant IgG1 antibody: Clone-2 VH and VL with human IgG constant domains (antibody, V domains shown) VH: EVQVVESGGGLVQPKGSLKLSCAASGFTFKTYAMNWVRQAPGKGLEWVARIRSKSRNYATYYADSVKDRFTISRDDSQFMFYLQMNNLKTEDTAMYYCVVGGSGFDYWGQGTTLTVSS VL: DVLMTQTPLSLPVSLGDQASISCRSSQSIVHSNGNTYLEWYLQKPGQSPKLLIYKVSNRFSGVPDRFSGSGSGTDFTLSISRVEAGDLGVYYCFQGSHVPWTFGGGTKLEIK | – | – | – | superior to Clone-2-hB, Clone-2-hC, and their parental Clone-2
